By Kd is commonly meant the concentration at which binding is half-saturated.

The record followed here is patent publication US20250314643A1, “FLUORESCENT COMPLEXES COMPRISING TWO RHODAMINE DERIVATIVES AND A NUCLEIC ACID MOLECULE” (CENTRE NATIONAL DE LA RECHERCHE SCIENTIFIQUE, priority 2019, published 2025).

Data set [1] can be described thus: Fluorescence Correlation Spectroscopy (FCS) analysis of the fluoromodules. The format is physicochemical.
Data set [2] can be described thus: Affinity measurements (Kd, fluorescence titration of Gemini-561 with RNA). The format is binding. The settings on record: for Kd: 40 mM potassium phosphate pH 7.5, 100 mM KCl, 1 mM MgCl2, 0.05% Tween 20, 100 nM (SRB-2) or 25 nM (4C10) Gemini-561. The protocol: The Kd value can be obtained by measuring the fluorescence intensity of the fluorophore in aqueous medium with increasing amount of the said nucleic acid. The plot of the fluorescence intensity versus the concentration of the said nucleic acid will provide the Kd value after fitting with the proper equation (example: Hill equation).
The fluorescence was measured on microplate reader (ex/em 580/620 nm, SpectraMax iD3, Molecular Devices).

Data set [3] can be described thus: Fluorescence measurement on purified RNA (Gemini-561 activation capacity). The format is biochemical. As to conditions: 500 nM RNA, 50 nM Gemini-561, ex/em 560/600 nm. On the procedure: FIG. 6A represents Gemini-561 activation capacity of the parental SRB-2 and the evolved 4C10 variant. 500 nM of RNAs were incubated with 50 nM of Gemini-561 and the fluorescence was measured at À ex/em=560/600 nm.
FIG. 7A represents the fluorogenic capacity of SRB-2 and its evolved forms 4C10 and o-Coral. 500 nM of RNAS were incubated With 50 nM of Gemini-561 and the fluorescence was measured at X ex/em=560/600 nm. The values are the mean of 3 independent experiments, each measurement being shown as an open circle. The error bars correspond to ±1 standard deviation.
FIG. 10B represents Contribution of the dimerization and 736 the mutations to o-Coral functionality. SRB-2 aptamer was used as scaffold either in its monomeric 737 (m) or dimeric (d) form containing o-Coral linker. Indicated mutations were then implemented and the 738 different constructs tested as above.
FIG. 10C represents the identification of interacting regions. […]
1 μM purified RNA was heated for 1 min at 90° C. and cooled at 4° C. for 1 min. […] The mixture was then incubated for 10 min at 25° C. prior to measuring the fluorescence at 25° C. 011 a real-time thermocycler (ex/em 575/602 nm, MX 3005P, Agilent) or on microplate reader (ex/em 560/600 nm, SpectraMax iD3, Molecular Devices).

Take `CN(C)c1ccc2c(-c3ccccc3C(=O)[O-])c3ccc(N(C)C)cc3[o+]c2c1` [Tetramethylrhodamine]: in data set [1] (fluorogen 200 nM, aptamer 1 μM), the “Size (hydrodynamic diameter of fluorescent specie)” value came out at 1 nm and the “τcorr (correlation time)” value is 0.032 ms. Besides, the “Brightness with respect to one molecule of the standard” value in data set [1] (standard tetramethylrhodamine for o-Coral (532 nm excitation), fluorescein for Broccoli and Corn) is 1.

B1: o-Coral: light-up RNA aptamer, 4C10 derivative with 6-nucleotide long linker (nucleic acid)
chain: GGGAGACAGCUAGAGUACAGGAACCCCGCUUCGGCGGUGAUGGAGAGGCGCAAGGUUAACCGCCUCAGGUUCCGGUGACGGGGCCUCGCUUCGGCGAUGAUGGAGAGGCGCAAGGUUAACCGCCUCAGGUUCUGACACGAGCACAGUGUAC
modifications: fluorophore binding aptamers
notes: light-up RNA aptamer, 4C10 derivative with 6-nucleotide long linker
As to B1, the “fluorogenicity and affinity for Gemini-561 compared with 4C10” value in data set [2] (6-nucleotide linker derivative of 4C10) is “conserved both fluorogenicity and affinity”.

B2: 4C10: duplicated SRB-2 variant RNA aptamer displaying 6 point mutations (nucleic acid)
chain: AGAACCCCGCUUCGGCGGUGAUGGAGAGGCGCAAGGUUAACCGCCUCAGGUUCCNNNNNNNNNNNNNNNNNNNNNNNNNNNNNNNNNNNNNNNNNNNNNNNNNNNNNNNNNNNNGGGGCCUCGCUUCGGCGAUGAUGGAGAGGCGCAAGGUUAACCGCCUCAGGUUCU
modifications: fluorophore binding aptamers; (55)..(72) N represents A, U, G or C; (73)..(114) N represents A, U, G or C or is absent
notes: duplicated SRB-2 variant RNA aptamer displaying 6 point mutations
For the molecule B2, the Kd in data set [2] is approximately 73 nM. The “capacity to turn on Gemini-561 fluorescence” value in data set [3] was “an order of magnitude more fluorescent”.

B3: SRB-2: parental RNA aptamer previously developed to interact with sulforhodamine B (nucleic acid)
chain: GGGAGACAGCUAGAGUACGGAACCUCGCUUCGGCGAUGAUGGACAGGUUCCGACACGAGCACAGUGUAC
modifications: listed as RNA, chemistry not given here
Molecule B3 yielded a Kd in data set [2] of approximately 441 nM. Moreover, in data set [3], the “capacity to turn on Gemini-561 fluorescence” value is reported as “poor”.
